{"source": "patent US20120277286A1", "about": "“COMPOSITIONS AND METHODS FOR THE TREATMENT OR PREVENTION OF MITOCHONDRIAL DISEASES” (The Government of the USA, as represented by the Secretary, …, priority 2009, published 2012)", "key": {"[1]": {"system": "HeLa cells", "assay": "Parkin-induced mitophagy, loss of mitochondria by immunocytochemistry", "assay_type": "cell-based", "settings": "YFP-Parkin HeLa cells, 10 μM CCCP+10 mM 3-methyladenine or +100 nM Bafilomycin, 24 hours", "description": "Cultured cells seeded in borosilicate chamber slides (Thermo Fisher Scientific) were transfected or cotransfected with YFP-Parkin, ECFP-Parkin, mCherry-Parkin, DsRed-Mito (Clontech Laboratories, Inc.), pcDNA3.1 (Invitrogen), vMIA, and/or Drp1K38A constructs using Fugene 6 (Roche). Parkin-myc was a gift from M. Cookson (National Institutes of Health, Bethesda, Md.). Cells were fixed 12-24 hours after transfection with 4% paraformaldehyde in PBS. Cells were stained with following primary antibodies: mouse monoclonal cytochrome c (BD), rabbit polyclonal Tom20 (Santa Cruz Biotechnology, Inc.), mouse monoclonal Parkin PRK8 (Santa Cruz Biotechnology, Inc.), rabbit polyclonal PMP70 (Invitrogen), and/or mouse monoclonal TRAP1 (Abcam); and with the following secondary antibodies: mouse and/or rabbit Alexa 488, 594, and 633 (Invitrogen). For assessment of mitochondrial membrane potential, cells were pulsed with 50 nM Mito-Tracker red (Invitrogen) for 15 min, washed, and incubated for an additional 10 minutes before fixation or imaging. For assessment of cell metabolic potential, cell nuclei were stained with Hoechst 33342 (Invitrogen).\n(§1) Confocal microscopy of fixed samples, scoring of Parkin recruitment and Parkininduced mitophagy, and live cell imaging were performed as described previously (Narendra (2008) J Cell Biol 183: 795-803). Experiments in Mfn1/2 null cells were performed as described previously with minor modifications.\nas §1, with “Parkin-induced” for “Parkininduced”, “imageing” for “imaging”, “modifications described in the supplemental methods (Narendra (2008) J Cell Biol 183: 795-803).” for “modifications.”"}, "[2]": {"system": "PINK1", "assay": "PINK1 accumulation by fractionation and immunoblotting", "assay_type": "cell-based", "settings": "HeLa cells, mitochondrial membrane fraction; 10 μM CCCP or 1 μM valinomycin", "source_text": "(§2) For PINK1 experiments, cells were fractionated using the Mitochondria Isolation Kit (Pierce), according to manufacturer's specifications with slight modifications. To isolate integral membrane proteins, membrane fractions obtained as above were carbonate extracted with 0.1M Na2CO3 fresh cold buffer and membranes were pelleted, as described in the supplemental methods. For Parkin experiments, cells were fractionated as described previously, with minor modifications described in the supplemental methods (Narendra (2008) J Cell Biol 183: 795-803). The following primary antibodies were used: anti-Parkin (PRK8) monoclonal (Santa Cruz), anti-Tom20 polyclonal (Santa Cruz), anti-cytochrome c monoclonal (BD Biosciences), anti-PINK1 polyclonal (Novus Biologicals), anti-VDAC monoclonal (Calbiochem), anti-GAPDH polyclonal (Sigma-Aldrich), anti-Tubulin monoclonal (Sigma-Aldrich), anti-V5 monoclonal (Invitrogen), anti-GFP polyclonal (Invitrogen).\nas §2, with “with slight modifications described in the supplemental methods. To isolate” for “with slight modifications. To isolate”, “minor modifications detailed in the” for “minor modifications described in the”, “supplemental methods (Narendra (2008) J Cell Biol 183: 795-803). The protease protection assay was performed as described previously (Chen (2005) J Biol Chem 280: 26185-26192). Cells were fixed and immunostained as described previously (Narendra (2008)” for “supplemental methods (Narendra (2008)”, “anti-GFP polyclonal (Invitrogen), anti-TIM23 monoclonal (BD Biosciences), and anti-Hsp60 monoclonal (Stressgen).” for “anti-GFP polyclonal (Invitrogen).”"}, "[3]": {"system": "PINK1+/+ or PINK1−/− MEFs", "assay": "YFP-Parkin recruitment to mitochondria in MEFs", "assay_type": "cell-based, mouse", "settings": "20 μM CCCP, 3 hours; for reconstitution of YFP-Parkin recruitment: PINK1−/− primary MEFs co-transfected with construct", "source_text": "HeLa YFP-Parkin, PINK1+/+ SV40 transformed MEFs cells, PINK1−/− SV40 transformed MEF, M17 neuroblastoma control shRNA, M17 neuroblastoma PINK1, and Mfn1/2−/− MEF cell lines have been described previously (Narendra (2008) J Cell Biol 183: 795-803). PINK1+/+ and PINK1−/− primary MEFs were isolated from embryos using a standard protocol (Gautier (2008) Proc Natl Acad Sci USA 105: 11364-11369). Parkin+/+ and Parkin−/− transformed MEFs were created by isolation of primary cells from embryos of B6.129S4-Park2tm1Shn/J mice (Jackson Labs), using a standard protocol (Gautier (2008) Proc Natl Acad Sci USA 105: 11364-11369), followed by retroviral transduction of SV40 (Applied Biological Materials, Inc.). YFP-Parkin, YFPParkin mutants, mCherry-Parkin, PINK1-YFP, PINK1 KD-YFP, PINK1 Δ1-110-YFP, and Opa3-PINK1 Δ1-110-YFP are in C1 or N1 Clontech vectors. PINK1WT-V5, PINK1 KD-V5, and PINK1 Δ1-156-V5 are in pDest40 vector (Invitrogen). PINK1 patient mutations are in pLenti-V5 vector (Invitrogen). PINK1-myc is in a pCMBTNT vector (Promega).\nas §1\nHeLa YFP-Parkin, E18 Rat cortical neurons, PINK1^+/+ SV40 transformed MEFs cells, PINK1^−/− SV40 transformed MEF, M17 neuroblastoma control shRNA, M17 neuroblastoma PINK1, Mfn1/2^−/− MEF, and Parl^−/− MEF cell lines have been described previously (Narendra (2008) J Cell Biol 183: 795-803). PINK1^+/+ and PINK1^−/− primary MEFs were isolated from embryos using a standard protocol (Gautier (2008) Proc Natl Acad Sci USA 105: 11364-11369). Parkin^+/+ and Parkin^−/− transformed MEFs were created by isolation of primary cells from embryos of B6.129S4-Park2^tm1Shn/J mice (Jackson Labs), using a standard protocol (Gautier (2008) Proc Natl Acad Sci USA 105: 11364-11369), followed by retroviral transduction of SV40 (Applied Biological Materials, Inc.). YFP-Parkin, YFP-Parkin mutants, mCherry-Parkin, PINK1-YFP, PINK1 KD-YFP, PINK1 Δ1-110-YFP, and Opa3-PINK1 Δ1-110-YFP are in C1 or N1 Clontech vectors. PINK1WT-V5, PINK1 KD-V5, and PINK1 Δ1-156-V5 are in pDest40 vector (Invitrogen). PINK1 patient mutations are in the pLenti-V5 vector (Invitrogen). PINK1-myc is in a pCMBTNT vector (Promega). The PARL shRNA construct targeting (5′ […] 3′) is in the pSuper-GFP vector. To make FRB-PINK1 (111-581)-YFP and Tom20 (1-33)-FKBP, PCR fragments containing PINK1 (111-581)-YFP and Tom20 (1-33) were cloned into the BamHI site of the pC4-RHE vector and the EcoRI and XbaI sites of pC4M-F2E vectors, respectively (ARIAD Pharmaceuticals). The rapamycin analogue AP21967 was obtained from ARIAD Pharmaceuticals. The PARL shRNA construct targeting (5′ […] 3′) is in the pSuper-GFP vector (OligoEngine).\nas §1, with “Parkin-induced” for “Parkininduced”, “imageing” for “imaging”, “modifications described in the supplemental methods (Narendra (2008) J Cell Biol 183: 795-803).” for “modifications.”"}}}
{"molecule": "Cn1cnc(N)c2ncnc1-2", "note": "[3-methyl adenine, reference compound]", "values": [{"measurement": "effect on Parkin-induced mitophagy", "setting": "[1]", "value": "blocked"}]}
{"molecule": "CO/C1=C\\C(C)=C\\[C@@H](C)[C@@H](O)[C@@H](C)C/C(C)=C/C=C/[C@H](OC)[C@@H]([C@@H](C)[C@@H](O)[C@H](C)[C@@]2(O)C[C@@H](O)[C@H](C)[C@@H](C(C)C)O2)OC1=O", "note": "[bafilomycin, reference compound]", "values": [{"measurement": "effect on Parkin-induced mitophagy", "setting": "[1]", "value": "blocked"}]}
{"molecule": "CC(C)[C@@H]1NC(=O)[C@H](C)OC(=O)[C@@H](C(C)C)NC(=O)[C@@H](C(C)C)OC(=O)[C@H](C(C)C)NC(=O)[C@H](C)OC(=O)[C@@H](C(C)C)NC(=O)[C@@H](C(C)C)OC(=O)[C@H](C(C)C)NC(=O)[C@H](C)OC(=O)[C@@H](C(C)C)NC(=O)[C@@H](C(C)C)OC1=O", "note": "[valinomycin]", "values": [{"measurement": "endogenous full length PINK1 (˜63 kDa) level after depolarization", "setting": "[2]", "value": "increased"}]}
{"molecule": "L347P: patient mutant of PINK1, V5-tagged (protein, UniProt Q9BXM7 78-581, looked up, variant L347P, V5 tag, patient mutant of PINK1, V5-tagged) Serine/threonine-protein …: AARLQRQFVVRAWGCAGPCGRAVFLAFGLGLGLIEEKQAESRRAVSACQEIQAIFTQKSKPGPDPLDTRRLQGFRLEEYLIGQSIGKGCSAAVYEATMPTLPQNLEVTKSTGLLPGRGPGTSAPGEGQERAPGAPAFPLAIKMMWNISAGSSSEAILNTMSQELVPASRVALAGEYGAVTYRKSKRGPKQLAPHPNIIRVLRAFTSSVPLLPGALVDYPDVLPSRLHPEGLGHGRTLFLVMKNYPCTLRQYLCVNTPSPRLAAMMLLQLPEGVDHLVQQGIAHRDLKSDNILVELDPDGCPWLVIADFGCCLADESIGLQLPFSSWYVDRGGNGCLMAPEVSTARPGPRAVIDYSKADAWAVGAIAYEIFGLVNPFYGQGKAHLESRSYQEAQLPALPESVPPDVRQLVRALLQREASKRPSARVAANVLHLSLWGEHILALKNLKLDKMVGWLLQQSAATLLANRLTEKCCVETKMKMLFLANLECETLCQAALLLCSWRAAL", "values": [{"measurement": "reconstitution of YFP-Parkin recruitment", "setting": "[3]", "value": "failed to reconstitute"}]}
{"molecule": "A168P: patient mutant of PINK1, V5-tagged (protein, UniProt Q9BXM7 78-581, looked up, variant A168P, V5 tag, patient mutant of PINK1, V5-tagged) Serine/threonine-protein …: AARLQRQFVVRAWGCAGPCGRAVFLAFGLGLGLIEEKQAESRRAVSACQEIQAIFTQKSKPGPDPLDTRRLQGFRLEEYLIGQSIGKGCSPAVYEATMPTLPQNLEVTKSTGLLPGRGPGTSAPGEGQERAPGAPAFPLAIKMMWNISAGSSSEAILNTMSQELVPASRVALAGEYGAVTYRKSKRGPKQLAPHPNIIRVLRAFTSSVPLLPGALVDYPDVLPSRLHPEGLGHGRTLFLVMKNYPCTLRQYLCVNTPSPRLAAMMLLQLLEGVDHLVQQGIAHRDLKSDNILVELDPDGCPWLVIADFGCCLADESIGLQLPFSSWYVDRGGNGCLMAPEVSTARPGPRAVIDYSKADAWAVGAIAYEIFGLVNPFYGQGKAHLESRSYQEAQLPALPESVPPDVRQLVRALLQREASKRPSARVAANVLHLSLWGEHILALKNLKLDKMVGWLLQQSAATLLANRLTEKCCVETKMKMLFLANLECETLCQAALLLCSWRAAL", "values": [{"measurement": "reconstitution of YFP-Parkin recruitment", "setting": "[3]", "value": "failed to reconstitute"}]}
{"molecule": "G411S: PINK1 polymorphism, V5-tagged (protein, UniProt Q9BXM7 78-581, looked up, variant G411S, V5 tag, PINK1 polymorphism, V5-tagged) Serine/threonine-protein …: AARLQRQFVVRAWGCAGPCGRAVFLAFGLGLGLIEEKQAESRRAVSACQEIQAIFTQKSKPGPDPLDTRRLQGFRLEEYLIGQSIGKGCSAAVYEATMPTLPQNLEVTKSTGLLPGRGPGTSAPGEGQERAPGAPAFPLAIKMMWNISAGSSSEAILNTMSQELVPASRVALAGEYGAVTYRKSKRGPKQLAPHPNIIRVLRAFTSSVPLLPGALVDYPDVLPSRLHPEGLGHGRTLFLVMKNYPCTLRQYLCVNTPSPRLAAMMLLQLLEGVDHLVQQGIAHRDLKSDNILVELDPDGCPWLVIADFGCCLADESIGLQLPFSSWYVDRGGNSCLMAPEVSTARPGPRAVIDYSKADAWAVGAIAYEIFGLVNPFYGQGKAHLESRSYQEAQLPALPESVPPDVRQLVRALLQREASKRPSARVAANVLHLSLWGEHILALKNLKLDKMVGWLLQQSAATLLANRLTEKCCVETKMKMLFLANLECETLCQAALLLCSWRAAL", "values": [{"measurement": "YFP-Parkin recruited to mitochondria, % of cells", "setting": "[3]; PINK1−/− primary MEFs expressing the PINK1 construct", "value": "74.2±5.4", "unit": "%"}]}
{"molecule": "H271Q: patient mutant of PINK1, V5-tagged (protein, UniProt Q9BXM7 78-581, looked up, variant H271Q, V5 tag, patient mutant of PINK1, V5-tagged) Serine/threonine-protein …: AARLQRQFVVRAWGCAGPCGRAVFLAFGLGLGLIEEKQAESRRAVSACQEIQAIFTQKSKPGPDPLDTRRLQGFRLEEYLIGQSIGKGCSAAVYEATMPTLPQNLEVTKSTGLLPGRGPGTSAPGEGQERAPGAPAFPLAIKMMWNISAGSSSEAILNTMSQELVPASRVALAGEYGAVTYRKSKRGPKQLAPQPNIIRVLRAFTSSVPLLPGALVDYPDVLPSRLHPEGLGHGRTLFLVMKNYPCTLRQYLCVNTPSPRLAAMMLLQLLEGVDHLVQQGIAHRDLKSDNILVELDPDGCPWLVIADFGCCLADESIGLQLPFSSWYVDRGGNGCLMAPEVSTARPGPRAVIDYSKADAWAVGAIAYEIFGLVNPFYGQGKAHLESRSYQEAQLPALPESVPPDVRQLVRALLQREASKRPSARVAANVLHLSLWGEHILALKNLKLDKMVGWLLQQSAATLLANRLTEKCCVETKMKMLFLANLECETLCQAALLLCSWRAAL", "values": [{"measurement": "reconstitution of YFP-Parkin recruitment", "setting": "[3]", "value": "failed to reconstitute"}]}
